Legend:
TPR domains = details: ref Scheufler et al., 2000; cited from earlier work
Description: The orientation of Hsp peptides in TPR structures varies between proteins. The conserved clamp mode of interactions is consistent, but there are some differences observed for the N-terminal parts of the peptides, which is not surprising given that the carboxylate clamp is the fixed point of attachment. The PTVEEVD peptide adopts an extended conformation within the Sgt2_TPR groove similar to that observed in the structure of the HOP TPR1/GPTIEEVD complex (Scheufler et al., [2000]). In contrast, structures of GPTIEEVD/Chip TPR [PDB: 3Q49 (Wang L. et al., [2011]) and PDB: 4KBQ Zhang et al., [2005 ...

[1] = target: T1, Sgt2_TPR (residues 93–229) (Saccharomyces cerevisiae, UniProt Q12118); assay: ITC binding of peptides to Sgt2_TPR (93–229); parameters: species or system S. cerevisiae; details: 25°C, pH 6.0, from ΔG = −RT·lnKb and ΔG = ΔH − TΔS
T1 construct: were added to Sgt2_TPR (residues 93–229) at 50 μM in the reaction cell; thioredoxin A (N, cleaved yes); hexahistidine tag (N, cleaved yes); made in house; host or cells: E. coli BL21 (DE3)
T1 sequence (Q12118 93-229): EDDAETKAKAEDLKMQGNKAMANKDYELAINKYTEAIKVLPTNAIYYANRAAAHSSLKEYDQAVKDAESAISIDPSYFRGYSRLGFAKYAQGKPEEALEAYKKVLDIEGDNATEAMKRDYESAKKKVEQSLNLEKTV

[2] = target: Ybr137wp (Saccharomyces cerevisiae) (UniProt P38276); assay: ITC; details: cited from earlier work
Ybr137wp (Saccharomyces cerevisiae), sequence (P38276 whole entry): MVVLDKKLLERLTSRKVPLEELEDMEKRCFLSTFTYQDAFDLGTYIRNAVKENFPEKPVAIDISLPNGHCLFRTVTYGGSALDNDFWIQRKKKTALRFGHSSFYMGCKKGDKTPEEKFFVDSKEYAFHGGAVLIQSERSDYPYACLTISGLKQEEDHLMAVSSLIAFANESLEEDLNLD

Sgt2_TPR (93–229) = target: T2, Sgt2_TPR (93–229) (S. cerevisiae, UniProt Q12118 93-229); assay: ITC; 20 injections of 2 uL of 500 uM peptide into 50 uM Sgt2_TPR (93-229) in the cell; 10 mM potassium phosphate pH 6.0, 100 mM NaCl, 250 uM TCEP, 25°C; details: both partners purified
T2 construct: Small glutamine-rich tetratricopeptide repeat-containing protein 2 (Sgt2), S. cerevisiae, TPR domain, residues 93-229; 15N-labelled for the NMR titrations; Cloned from synthetic cDNA into the BamHI/XhoI sites of a modified pET28; also called TPR domain of Sgt2; longer construct of Sgt2_TPR; not shown: thioredoxin A, N-terminal, cleaved; His6, N-terminal, cleaved
T2 sequence (looked up): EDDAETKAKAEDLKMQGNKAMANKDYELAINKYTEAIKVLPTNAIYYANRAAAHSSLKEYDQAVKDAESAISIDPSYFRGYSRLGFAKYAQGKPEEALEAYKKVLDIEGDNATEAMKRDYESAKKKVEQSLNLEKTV

Molecule	Kd (Sgt2_TPR (93–229))	dH (Sgt2_TPR (93–229))	other results
EEVD	–	–	Fold reduction of affinity on trimming the peptide sequence to EEVD only (TPR domains): at least 10 times
MEEVD [peptide corresponding to C-terminal of Hsp82; residues 705–709]	–	–	ΔS (reaction entropy) by ITC [1]: 10.9 cal/mol·deg
Sgt2 TPR (from UniProt Q12118)	–	–	Kd [2]: 1.38 µM
SLEEDLNLD (Ybr137wp, yeast, C-terminal residues 171-179; also called Ybr137wp-derived peptide; source: synthetic peptide, bought: Alpha BioScience (Birmingham, UK)) [SLEEDLNLD peptide (C-terminus of Ybr137wp)]	1.53 ± 0.05 µM	-7.07 ± 0.99 kcal/mol	–
MEEVD (Hsp82 (yeast Hsp90), C-terminal residues 705-709; the abstract and discussion call the parent Hsc82; also called C-terminal fragment of Hsp82; Hsc82 C-terminal peptide; source: synthetic peptide, bought: Alpha BioScience (Birmingham, UK)) [MEEVD peptide (C-terminus of Hsp82)]	2.95 ± 0.31 µM	-4.51 ± 0.03 kcal/mol	–
PTVEEVD (Heat shock protein Ssa1 (yeast Hsp70), last seven amino acids; printed as residues 634-640; also called C-terminal peptide of Ssa1; Ssa1 derived PTVEEVD peptide; source: synthetic peptide, bought: Alpha BioScience (Birmingham, UK)) [PTVEEVD peptide (C-terminus of Ssa1)]	9.04 ± 0.05 µM	-6.72 ± 0.07 kcal/mol	–

Reference: publication PMC5641545, “Structure and Interactions of the TPR Domain of Sgt2 with Yeast Chaperones and Ybr137wp” (Frontiers in Molecular Biosciences, 2017)
